Data from publication PMC8456507.

B1: NCRm (dsDNA)
DNA 1: AGCTTAAGTAATACGGCTATGCAAGGCA
DNA 2: TGCCTTGCATAGCCGTATTACTTAAGCT
B2: NCR (dsDNA)
DNA 1: AGCTTAAGTAACGCCATTTTGCAAGGCA
DNA 2: TGCCTTGCAAAATGGCGTTACTTAAGCT

Molecular target: rYY1 (UniProt Q00899 1-414)
Assay: pull-down

rYY1, sequence (Q00899 whole entry): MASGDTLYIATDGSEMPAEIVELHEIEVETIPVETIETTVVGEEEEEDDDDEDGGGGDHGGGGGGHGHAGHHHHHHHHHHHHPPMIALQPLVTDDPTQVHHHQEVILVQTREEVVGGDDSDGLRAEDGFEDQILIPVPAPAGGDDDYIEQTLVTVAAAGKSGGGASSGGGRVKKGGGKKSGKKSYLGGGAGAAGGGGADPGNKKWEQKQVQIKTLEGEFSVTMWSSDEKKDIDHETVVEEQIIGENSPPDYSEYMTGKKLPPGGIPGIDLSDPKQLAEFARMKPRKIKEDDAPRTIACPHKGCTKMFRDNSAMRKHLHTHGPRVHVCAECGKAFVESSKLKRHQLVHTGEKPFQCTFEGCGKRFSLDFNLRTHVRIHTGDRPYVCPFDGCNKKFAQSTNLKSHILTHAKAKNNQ

Binder | binding result
B1 | no binding
B2 | binds
